Assay results: paper PMC2845718 (2009)

Columns and labels:
Stingin-1 = assay: SPR
Stingin-2 = assay: SPR
Stingin-4 = assay: SPR competition

| Binder | Kd (Stingin-1) [nM] | Kd (Stingin-2) [nM] | Kd (Stingin-4) [nM] |
| --- | --- | --- | --- |
| MDM2 25-109 (protein) ETLVRPKPLLLKLLKSVGAQKDTYTMKEVLFYLGQYIMTKRLYDEKQQHIVYCSNDLLGDLFGVPSFSVKEHRKIYTMIYRNLVV | 25.1 | 35.2 | – |
| MDMX 24-108 (protein) INQVRPKLPLLKILHAAGAQGEMFTVKEVMHYLGQYIMVKQLYDQQEQHMVYCGGDLLGELLGRQSFSVKDPSPLYDMLRKNLVT | 11.4 | 18 | 252 |
